The data set concerns the molecule itself. In words: SEC; gel filtration of purified recombinant rRII-3; column and buffer not told in the text shown (Figure S3). In general terms: SEC sorts molecules by how far they enter the pores of the column.

B1: recombinant RII-3 of P. falciparum reticulocyte binding protein homologue 1 (PfRH1), amino acids 500 to 833 (domain or fragment)
chain: LQIVQQKLLEIKQKKNDITHKVQLINHIYKNIHDEILNKKNNEITKIIINNIKDHKKDLQDLLLFIQQIKQYNILTDHKITQCNNYYKEIIKMKEDINHIHIYIQPILNNLHTLKQVQNNKIKYEEHIKQILQKIYDKKESLKKIILLKDEAQLDITLLDDLIQKQTKKQTQTQTQTQKQTLIQNNETIQLISGQEDKHESNPFNHIQTYIQQKDTQNKNIQNLLKSLYNGNINTFIDTISKYILKQKDIELTQHVYTDEKINDYLEEIKNEQNKIDKTIDDIKIQETLKQITHIVNNIKTIKKDLLKEFIQHLIKYMNERYQNMQQGYNNLTN
notes: region II amino acids 500 to 833 (334 residues); Cloned EcoRI/XhoI into pET24a(+); no cleavage of the tag is described; Primers are in Protocol S1; also called rRII-3; source: E. coli BL21-CodonPlus-RIL, purified (Ni-NTA, MonoS ion exchange); not shown: His6, C-terminal, kept
Usually stoichiometry N stands for a count of units in the complex or per binding partner. In the case of B1, the “stoichiometry N” value amounted to 3.
